# Results from patent US20210277128A1 (published 2021).
# B1: SI-1C5 (antibody, human IgG1, kappa, V domains shown)
# VH: QVQLQQSGAEVKKPGSSVKVSCKASGYTFTNYYIYWVRQAPGQGLEWIGGINPTSGGSNFNEKFKTRVTITVDESTNTAYMELSSLRSEDTAFYFCARQGLWFDSDGRGFDFWGQGSTVTVSS
# VL: DIQMTQSPSSLSASVGDRVTITCRSSQNIVHSNGNTYLDWYQQTPGKAPKLLIYKVSNRFSGVPSRFSGSGSGTDFTFTISSLQPEDIATYYCFQYSHVPWTFGQGTKLQITR
# notes: Monospecific anti-EGFR antibody
# B2: SI-1X1 (bispecific antibody, human IgG1, kappa)
# heavy: not shown
# light: QSALTQPASVSGSPGQSITISCTGTSSDVGGYNFVSWYQQHPGKAPKLMIYDVSDRPSGVSDRFSGSKSGNTASLIISGLQADDEADYYCSSYGSSSTHVIFGGGTKLTVLRTVAAPSVFIFPPSDEQLKSGTASVVCLLNNFYPREAKVQWKVDNALQSGNSQESVTEQDSKDSTYSLSSTLTLSKADYEKHKVYACEVTHQGLSSPVTKSFNRGEC
# notes: Tetravalent IgG-(G4S)2-scFv; heavy chain entry holds gamma-1 heavy chain, connector and scFv; Anti-Her3 IgG moiety, anti-EGFR scFv
# B3: SI-1C4 (bispecific antibody, human IgG1, kappa, V domains shown)
# VH: EVQLVESGGGLVQPGGSLRLSCAASGFTLSGDWIHWVRQAPGKGLEWVGEISAAGGYTDYADSVKGRFTISADTSKNTAYLQMNSLRAEDTAVYYCARESRVSFEAAMDYWGQGTLVTVSS
# VL: DIQMTQSPSSLSASVGDRVTITCRASQNIATDVAWYQQKPGKAPKLLIYSASFLYSGVPSRFSGSGSGTDFTLTISSLQPEDFATYYCQQSEPEPYTFGQGTKVEIKR
# notes: also called IC4
# Tests used:
# [1] = target: T1, SI-2C1, dimeric EGFR ECD fused to rabbit Fc (UniProt P00533 25-645, limits assumed); test: ELISA, dimeric EGFR ECD-rabbit Fc coated, anti-human IgG-HRP detection
# T1 construct: extracellular domain; Made in house
# Procedure: ELISA was performed using dimeric EGFR ECD reagent, SI-2C1, fused to rabbit Fc created in house. EGFR was coated onto Maxisorp immunoplates (Nunc) at 3 μg/mL in PBS at 4° C. overnight. Plates were blocked in PBS with 3% BSA and 0.05% Tween20 for 2 hours at room temperature. […] 3 washes with PBST (1% BSA) were performed between each step.
# [2] = target: T2, Monomeric EGFR extracellular domain (ProSpec Bio, PKA-344) (UniProt P00533 25-645, limits assumed); test: BLI (BLItz), antibody on anti-human IgG Fc tips, EGFR ECD 200 nM then Her3 ECD 200 nM
# T2 construct: extracellular domain; Bought reagent; also called EGFR ECD
# Procedure: Bispecific binding to EGFR and Her3 extracellular domains was measured in a biolayer interferometry (BLI) binding assay on a BLItz instrument (ForteBio, Inc.). […] Binding of EGFR ECD to the tips was recorded as biolayer interferometry signals (Δnm) over an association time of 120 seconds.
# [3] = target: T2, Monomeric EGFR extracellular domain …; test: BLI (BLItz), antibody on anti-human IgG Fc tips, EGFR ECD 588 nM; benchmark antibody
# Procedure: Monomeric EGFR extracellular domain binding was measured in a biolayer interferometry (BLI) binding assay on a BLItz instrument (ForteBio, Inc.). […] Binding of EGFR ECD to the tips was recorded as biolayer interferometry signals (Δnm) over an association time of 120 seconds.
binder,measurement,setting,value
B1,binding result,[1],binds
B2,binding result,[2],binds
B3,binding result,[3],binds
